Results reported in patent US20170107290A1.

Biological target: human Axl on MDA-MB-231 cells (human) (UniProt P30530)
Chain of UniProt P30530 (P30530 26-894 Q764R limits assumed): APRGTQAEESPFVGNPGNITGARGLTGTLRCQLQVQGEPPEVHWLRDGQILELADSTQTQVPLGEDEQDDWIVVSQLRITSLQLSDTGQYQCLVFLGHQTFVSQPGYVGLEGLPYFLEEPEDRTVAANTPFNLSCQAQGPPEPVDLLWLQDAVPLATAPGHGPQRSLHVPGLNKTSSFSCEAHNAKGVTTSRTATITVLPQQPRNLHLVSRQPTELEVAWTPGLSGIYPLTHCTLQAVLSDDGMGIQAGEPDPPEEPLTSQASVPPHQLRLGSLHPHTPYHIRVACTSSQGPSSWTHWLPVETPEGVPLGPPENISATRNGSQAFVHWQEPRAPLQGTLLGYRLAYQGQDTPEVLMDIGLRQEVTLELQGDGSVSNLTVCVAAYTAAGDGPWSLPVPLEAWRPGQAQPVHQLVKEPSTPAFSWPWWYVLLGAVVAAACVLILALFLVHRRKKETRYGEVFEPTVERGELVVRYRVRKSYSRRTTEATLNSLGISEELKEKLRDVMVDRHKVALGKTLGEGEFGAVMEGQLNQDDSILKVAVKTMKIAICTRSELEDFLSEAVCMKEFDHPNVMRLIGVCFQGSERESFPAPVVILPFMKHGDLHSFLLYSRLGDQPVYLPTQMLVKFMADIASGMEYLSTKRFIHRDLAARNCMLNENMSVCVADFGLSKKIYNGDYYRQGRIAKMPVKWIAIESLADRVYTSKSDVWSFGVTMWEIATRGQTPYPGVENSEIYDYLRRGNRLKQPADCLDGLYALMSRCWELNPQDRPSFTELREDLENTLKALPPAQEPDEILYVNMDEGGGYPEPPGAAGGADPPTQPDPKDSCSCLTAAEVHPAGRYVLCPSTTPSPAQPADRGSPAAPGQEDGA

Substance	EC50 (pM), concentration leading to 50% cell killing, XTT/PMS viability of MDA-MB-231 cells after 72 h [table] [pM]
Control SAP	4080
Saporin	79800
